The chains are these.
B2: TCTP-GST (GST-tagged recombinant TCTP) (natural protein, human, UniProt P13693 1-172, looked up)
chain: MIIYRDLISHDEMFSDIYKIREIADGLCLEVEGKMVSRTEGNIDDSLIGGNASAEGPEGEGTESTVITGVDIVMNHHLQETSFTKEAYKKYIKDYMKSIKGKLEEQRPERVKPFMTGAAEQIKHILANFKNYQFFIGENMNPDGMVALLDYREDGVTPYMIFFKDGLEMEKC
notes: translationally controlled tumor protein (TCTP); also called GST-tagged TCTP; TCTP-GST protein; source: E. coli, purified (GST fusion protein purification kit)

What all share (test): pull-down; His-tagged Apaf-1 variants or WDR immobilised on Handee spin column, incubated with TCTP-GST; eluates separated by SDS-PAGE and silver stained
Conditions in all cases: both partners purified

For assay [1], the target named is B2.
Assay [2] has as its target T1, APAF-530 (Apaf-1 residues 1-530), His-tagged (UniProt O14727-3 1-530).
T1 construct: Apaf-1 residues 1-530; source: E. coli BL21(DE3)pLysS, purified (Ni Sepharose beads); not shown: His tag, C-terminal, kept
T1 sequence (looked up): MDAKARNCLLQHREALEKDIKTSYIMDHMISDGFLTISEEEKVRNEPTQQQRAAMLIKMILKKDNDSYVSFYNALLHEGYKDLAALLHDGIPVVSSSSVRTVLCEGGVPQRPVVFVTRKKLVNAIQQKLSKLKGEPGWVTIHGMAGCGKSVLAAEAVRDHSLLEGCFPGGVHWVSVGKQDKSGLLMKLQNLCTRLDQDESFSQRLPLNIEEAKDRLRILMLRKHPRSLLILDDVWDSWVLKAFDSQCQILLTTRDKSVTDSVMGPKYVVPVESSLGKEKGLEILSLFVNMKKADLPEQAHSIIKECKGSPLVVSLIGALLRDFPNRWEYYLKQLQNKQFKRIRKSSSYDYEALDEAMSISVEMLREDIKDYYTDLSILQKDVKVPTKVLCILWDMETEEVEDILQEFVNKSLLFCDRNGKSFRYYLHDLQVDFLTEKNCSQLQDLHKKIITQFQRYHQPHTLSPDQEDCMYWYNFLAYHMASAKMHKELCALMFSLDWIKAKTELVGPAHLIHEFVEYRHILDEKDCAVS

In assay [3] the target is T2, APAF-420 (Apaf-1 residues 1-420), His-tagged (UniProt O14727-3 1-420).
T2 construct: Apaf-1 residues 1-420; source: E. coli BL21(DE3)pLysS, purified (Ni Sepharose beads); not shown: His tag, C-terminal, kept
T2 sequence (looked up): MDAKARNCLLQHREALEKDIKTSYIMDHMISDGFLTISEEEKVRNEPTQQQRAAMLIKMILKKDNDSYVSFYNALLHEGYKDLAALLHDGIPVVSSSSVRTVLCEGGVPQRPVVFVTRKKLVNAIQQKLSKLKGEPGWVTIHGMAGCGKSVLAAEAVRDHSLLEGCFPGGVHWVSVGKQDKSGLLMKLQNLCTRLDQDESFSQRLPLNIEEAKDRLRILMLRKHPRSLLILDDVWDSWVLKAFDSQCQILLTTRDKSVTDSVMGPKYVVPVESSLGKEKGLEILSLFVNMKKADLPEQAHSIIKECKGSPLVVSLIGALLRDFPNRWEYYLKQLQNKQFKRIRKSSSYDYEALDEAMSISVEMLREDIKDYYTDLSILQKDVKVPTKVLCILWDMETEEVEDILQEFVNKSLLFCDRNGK

Assay [4] concerns the target T3, Full APAF-1 (residues 1-1194), His-tagged (UniProt O14727-3 1-1194).
T3 construct: Apaf-1, full length, printed length 1194 residues (residues 1-1194): CARD 1-97, CED-4 98-412, WD-40 repeats 413-1194; also called full-length Apaf-1; His-Apaf-1; source: E. coli BL21(DE3)pLysS, purified (Ni Sepharose beads); not shown: His tag, C-terminal, kept
T3 sequence (looked up): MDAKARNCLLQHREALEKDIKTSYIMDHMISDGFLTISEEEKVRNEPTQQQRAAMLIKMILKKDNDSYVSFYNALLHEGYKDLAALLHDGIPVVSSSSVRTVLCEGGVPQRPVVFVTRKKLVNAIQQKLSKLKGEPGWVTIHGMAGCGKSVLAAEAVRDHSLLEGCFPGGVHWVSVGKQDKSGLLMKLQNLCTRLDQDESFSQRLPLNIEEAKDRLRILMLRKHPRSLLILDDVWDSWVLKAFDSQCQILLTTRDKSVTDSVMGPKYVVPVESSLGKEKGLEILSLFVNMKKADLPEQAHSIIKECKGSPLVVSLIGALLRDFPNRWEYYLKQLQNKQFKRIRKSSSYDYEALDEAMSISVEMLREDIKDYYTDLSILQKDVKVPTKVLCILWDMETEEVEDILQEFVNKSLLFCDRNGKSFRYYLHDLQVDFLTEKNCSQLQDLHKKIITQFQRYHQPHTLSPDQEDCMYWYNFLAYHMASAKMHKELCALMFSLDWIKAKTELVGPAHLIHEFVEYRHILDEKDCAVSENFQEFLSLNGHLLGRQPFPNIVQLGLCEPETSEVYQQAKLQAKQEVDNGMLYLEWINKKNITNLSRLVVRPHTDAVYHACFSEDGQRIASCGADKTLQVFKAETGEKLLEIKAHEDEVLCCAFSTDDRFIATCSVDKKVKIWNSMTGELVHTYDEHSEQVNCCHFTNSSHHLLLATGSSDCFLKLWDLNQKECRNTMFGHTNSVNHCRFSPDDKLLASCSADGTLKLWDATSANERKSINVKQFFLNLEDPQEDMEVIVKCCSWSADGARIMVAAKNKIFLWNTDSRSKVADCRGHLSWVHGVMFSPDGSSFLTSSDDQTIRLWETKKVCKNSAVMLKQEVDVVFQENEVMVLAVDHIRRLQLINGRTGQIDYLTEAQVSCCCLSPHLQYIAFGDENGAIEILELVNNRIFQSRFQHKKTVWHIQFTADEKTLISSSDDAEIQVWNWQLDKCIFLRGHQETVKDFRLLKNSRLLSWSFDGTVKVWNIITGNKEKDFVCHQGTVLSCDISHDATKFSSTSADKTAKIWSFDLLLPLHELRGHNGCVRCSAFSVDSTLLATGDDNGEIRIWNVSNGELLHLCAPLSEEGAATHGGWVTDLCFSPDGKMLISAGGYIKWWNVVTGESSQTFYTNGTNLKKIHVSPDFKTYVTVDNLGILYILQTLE

B1: APAF-97 (Apaf-1 residues 1-97, CARD), His-tagged (domain or fragment, UniProt O14727 1-97, looked up)
chain: MDAKARNCLLQHREALEKDIKTSYIMDHMISDGFLTISEEEKVRNEPTQQQRAAMLIKMILKKDNDSYVSFYNALLHEGYKDLAALLHDGIPVVSSS
notes: Apaf-1 residues 1-97 (caspase recruitment domain, CARD); also called APF-97; CARD of Apaf-1; source: E. coli BL21(DE3)pLysS, purified (Ni Sepharose beads); not shown: His tag, C-terminal, kept
As to B1, in assay [1], the binding result is “binds”.
As for B2, the binding result in assay [2], in assay [3] and in assay [4] was “binds” throughout.

The record behind these values is publication PMC4015309, “Interaction of translationally controlled tumor protein with Apaf-1 is involved in the development of chemoresistance in HeLa cells” (BMC Cancer, 2014).
